Results as given in article PMC8152475 (Biomedicines, 2021).

How the values were obtained:
TBK1 = molecular target: T1, TBK1 (Homo sapiens, UniProt Q9UHD2); type: binding
T1 sequence (Q9UHD2 1-729): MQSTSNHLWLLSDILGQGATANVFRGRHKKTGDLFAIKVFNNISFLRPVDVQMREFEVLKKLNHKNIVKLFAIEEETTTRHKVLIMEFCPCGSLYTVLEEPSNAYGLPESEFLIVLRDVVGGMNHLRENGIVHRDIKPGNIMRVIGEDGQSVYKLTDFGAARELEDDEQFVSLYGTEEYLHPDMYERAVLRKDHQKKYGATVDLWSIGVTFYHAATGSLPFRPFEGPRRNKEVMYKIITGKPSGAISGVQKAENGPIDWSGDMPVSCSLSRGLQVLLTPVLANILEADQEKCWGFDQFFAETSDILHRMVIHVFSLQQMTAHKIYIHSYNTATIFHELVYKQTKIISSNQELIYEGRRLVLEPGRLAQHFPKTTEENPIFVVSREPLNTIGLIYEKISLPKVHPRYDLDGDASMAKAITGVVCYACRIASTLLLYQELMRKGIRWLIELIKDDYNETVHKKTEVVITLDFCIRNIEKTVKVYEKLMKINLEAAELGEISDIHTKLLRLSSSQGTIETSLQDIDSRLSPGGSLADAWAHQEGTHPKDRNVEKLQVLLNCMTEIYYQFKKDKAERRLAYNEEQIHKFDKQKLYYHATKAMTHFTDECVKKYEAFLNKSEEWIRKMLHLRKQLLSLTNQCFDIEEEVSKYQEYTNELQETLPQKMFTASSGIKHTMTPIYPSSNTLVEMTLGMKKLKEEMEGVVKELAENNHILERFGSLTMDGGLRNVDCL

[1] = tested on: Caspase 3, FasL, Fas, and Bax in epithelioid cells and multinucleated giant cells; details: ref [45]; cited from earlier work
[2] = tested on: apoptosis and inflammation; details: ref [10],[11]; cited from earlier work
HK2 = type: binding
[3] = tested on: murine macrophages and patients with TB; details: ref [10],[11]; cited from earlier work

B1: MPT64: secretory immunodominant antigen of MTB, located in the RD2 region (protein)
chain: APKTYCEELKGTDTGQACQIQMSDPAYNINISLPSYYPDQKSLENYIAQTRDKFLSAATSSTPREAPYELNITSATYQSAIPPRGTQAVVLKVYQNAGGTHPTTTYKAFDWDQAYRKPITYDTLWQADTDPLPVVFPIVQGELSKQTGQQVSIAPNAGLDPVNYQNFAVTNDGVIFFFNPGELLPEAAGPTQVLVPRSAIDSMLA
- region of MPT protein binding TBK1 (TBK1): The N-terminal domain of MPT64 interacted with TBK1, and the core peptide sequences for binding were 24–28 and 34–38 peptides
- relation to expression of apoptotic factors [1]: related to the expression of apoptotic factors, such as Caspase 3, FasL, Fas, and Bax
- apoptosis, TGF-β expression and inflammation [2]: reduced apoptosis by increasing the expression of TGF-β and reducing inflammation
- domain of HK2 required for binding (HK2): HK2 domain in HK2 were found to be essential for their interaction with MPT64
- region of MPT64 binding HK2 (HK2): The C-terminal of MPT64 was associated with HK2 and its essential peptides were located between 187–193
- production of IFN-γ [3]: induced the production of IFN-γ in murine macrophages and patients with TB
